Values quoted from earlier work, collected in patent US20200069786A1, “COMPOSITION AND PROCESS FOR PREPARING VACCINE” (TREOS BIO ZRT., priority 2018, published 2020).
Like-named read-outs stand apart in the source and are kept apart here.

Tested on: TSA
[1] = TSA expression rate in GASTRIC cancer
[2] = TSA expression rate in Cervical cancer
[3] = TSA expression rate in Esophageal
[4] = TSA expression rate in LUNG cancer
[5] = TSA expression rate in PROSTATE cancer
[6] = TSA expression rate in MELANOMA

B1: CEA (protein, UniProt P06731 35-685, looked up)
Cell adhesion molecule CEACAM5: KLTIESTPFNVAEGKEVLLLVHNLPQHLFGYSWYKGERVDGNRQIIGYVIGTQQATPGPAYSGREIIYPNASLLIQNIIQNDTGFYTLHVIKSDLVNEEATGQFRVYPELPKPSISSNNSKPVEDKDAVAFTCEPETQDATYLWWVNNQSLPVSPRLQLSNGNRTLTLFNVTRNDTASYKCETQNPVSARRSDSVILNVLYGPDAPTISPLNTSYRSGENLNLSCHAASNPPAQYSWFVNGTFQQSTQELFIPNITVNNSGSYTCQAHNSDTGLNRTTVTTITVYAEPPKPFITSNNSNPVEDEDAVALTCEPEIQNTTYLWWVNNQSLPVSPRLQLSNDNRTLTLLSVTRNDVGPYECGIQNELSVDHSDPVILNVLYGPDDPTISPSYTYYRPGVNLSLSCHAASNPPAQYSWLIDGNIQQHTQELFISNITEKNSGLYTCQANNSASGHSRTTVKTITVSAELPKPSISSNNSKPVEDKDAVAFTCEPEAQNTTYLWWVNGQSLPVSPRLQLSNGNRTLTLFNVTRNDARAYVCGIQNSVSANRSDPVTLDVLYGPDTPIISPPDSSYLSGANLNLSCHSASNPSPQYSWRINGIPQQHTQVLFIAKITPNNNGTYACFVSNLATGRNNSIVKSITVSASGTSPGLSA
TSA Expression Rate (ER) (PANCREATIC): 60%

B2: ZNF165 (protein, UniProt P49910 1-485, looked up)
Zinc finger protein 165: MATEPKKAAAQNSPEDEGLLIVKIEEEEFIHGQDTCLQRSELLKQELCRQLFRQFCYQDSPGPREALSRLRELCCQWLKPEIHTKEQILELLVLEQFLTILPGDLQAWVHEHYPESGEEAVTILEDLERGTDEAVLQVQAHEHGQEIFQKKVSPPGPALNVKLQPVETKAHFDSSEPQLLWDCDNESENSRSMPKLEIFEKIESQRIISGRISGYISEASGESQDICKSAGRVKRQWEKESGESQRLSSAQDEGFGKILTHKNTVRGEIISHDGCERRLNLNSNEFTHQKSCKHGTCDQSFKWNSDFINHQIIYAGEKNHQYGKSFKSPKLAKHAAVFSGDKTHQCNECGKAFRHSSKLARHQRIHTGERCYECNECGKSFAESSDLTRHRRIHTGERPFGCKECGRAFNLNSHLIRHQRIHTREKPYECSECGKTFRVSSHLIRHFRIHTGEKPYECSECGRAFSQSSNLSQHQRIHMRENLLM
TSA Expression Rate (ER) (BRAIN): 100% | TSA Expression Rate (ER) (HCC): 52% | TSA Expression Rate (ER) (LUNG): 21% | Expression Rate (ER) % (TSA expression rate in CRC): 43% | Expression Rate (ER) % [1]: 9% | Expression Rate (ER) % (TSA expression rate in LEUKEMIAS): 52%

B3: PIWIL1 (protein, UniProt Q96J94 1-861, looked up)
Piwi-like protein 1: MTGRARARARGRARGQETAQLVGSTASQQPGYIQPRPQPPPAEGELFGRGRQRGTAGGTAKSQGLQISAGFQELSLAERGGRRRDFHDLGVNTRQNLDHVKESKTGSSGIIVRLSTNHFRLTSRPQWALYQYHIDYNPLMEARRLRSALLFQHEDLIGKCHAFDGTILFLPKRLQQKVTEVFSKTRNGEDVRITITLTNELPPTSPTCLQFYNIIFRRLLKIMNLQQIGRNYYNPNDPIDIPSHRLVIWPGFTTSILQYENSIMLCTDVSHKVLRSETVLDFMFNFYHQTEEHKFQEQVSKELIGLVVLTKYNNKTYRVDDIDWDQNPKSTFKKADGSEVSFLEYYRKQYNQEITDLKQPVLVSQPKRRRGPGGTLPGPAMLIPELCYLTGLTDKMRNDFNVMKDLAVHTRLTPEQRQREVGRLIDYIHKNDNVQRELRDWGLSFDSNLLSFSGRILQTEKIHQGGKTFDYNPQFADWSKETRGAPLISVKPLDNWLLIYTRRNYEAANSLIQNLFKVTPAMGMQMRKAIMIEVDDRTEAYLRVLQQKVTADTQIVVCLLSSNRKDKYDAIKKYLCTDCPTPSQCVVARTLGKQQTVMAIATKIALQMNCKMGGELWRVDIPLKLVMIVGIDCYHDMTAGRRSIAGFVASINEGMTRWFSRCIFQDRGQELVDGLKVCLQAALRAWNSCNEYMPSRIIVYRDGVGDGQLKTLVNYEVPQFLDCLKSIGRGYNPRLTVIVVKKRVNTRFFAQSGGRLQNPLPGTVIDVEVTRPEWYDFFIVSQAVRSGSVSPTHYNVIYDNSGLKPDHIQRLTYKLCHIYYNWPGVIRVPAPCQYAHKLAFLVGQSIHREPNLSLSNRLYYL
TSA Expression Rate (ER) (BRAIN): 76% | TSA Expression Rate (ER) (BREAST): 100% | TSA Expression Rate (ER) (HCC): 40% | TSA Expression Rate (ER) (OVARIAN): 68% | TSA Expression Rate (ER) (PANCREATIC): 71% | Expression Rate (ER) % (TSA expression rate in CRC): 48% | Expression Rate (ER) % [2]: 83% | Expression Rate (ER) % [3]: 70% | Expression Rate (ER) % [1]: 76% | Expression Rate (ER) % (TSA expression rate in Kidney): 52% | Expression Rate (ER) % [4]: 15% | Expression Rate (ER) % [5]: 4%

B4: PBK (protein, UniProt Q96KB5 1-322, looked up)
Lymphokine-activated killer …: MEGISNFKTPSKLSEKKKSVLCSTPTINIPASPFMQKLGFGTGVNVYLMKRSPRGLSHSPWAVKKINPICNDHYRSVYQKRLMDEAKILKSLHHPNIVGYRAFTEANDGSLCLAMEYGGEKSLNDLIEERYKASQDPFPAAIILKVALNMARGLKYLHQEKKLLHGDIKSSNVVIKGDFETIKICDVGVSLPLDENMTVTDPEACYIGTEPWKPKEAVEENGVITDKADIFAFGLTLWEMMTLSIPHINLSNDDDDEDKTFDESDFDDEAYYAALGTRPPINMEELDESYQKVIELFSVCTNEDPKDRPSAAHIVEALETDV
TSA Expression Rate (ER) (BRAIN): 100% | TSA Expression Rate (ER) (HCC): 64% | Expression Rate (ER) % (TSA expression rate in BLADDER cancer): 43%

B5: KIF20A (protein, UniProt O95235 2-890, looked up)
Kinesin-like protein KIF20A: SQGILSPPAGLLSDDDVVVSPMFESTAADLGSVVRKNLLSDCSVVSTSLEDKQQVPSEDSMEKVKVYLRVRPLLPSELERQEDQGCVRIENVETLVLQAPKDSFALKSNERGIGQATHRFTFSQIFGPEVGQASFFNLTVKEMVKDVLKGQNWLIYTYGVTNSGKTHTIQGTIKDGGILPRSLALIFNSLQGQLHPTPDLKPLLSNEVIWLDSKQIRQEEMKKLSLLNGGLQEEELSTSLKRSVYIESRIGTSTSFDSGIAGLSSISQCTSSSQLDETSHRWAQPDTAPLPVPANIRFSIWISFFEIYNELLYDLLEPPSQQRKRQTLRLCEDQNGNPYVKDLNWIHVQDAEEAWKLLKVGRKNQSFASTHLNQNSSRSHSIFSIRILHLQGEGDIVPKISELSLCDLAGSERCKDQKSGERLKEAGNINTSLHTLGRCIAALRQNQQNRSKQNLVPFRDSKLTRVFQGFFTGRGRSCMIVNVNPCASTYDETLHVAKFSAIASQLVHAPPMQLGFPSLHSFIKEHSLQVSPSLEKGAKADTGLDDDIENEADISMYGKEELLQVVEAMKTLLLKERQEKLQLEMHLRDEICNEMVEQMQQREQWCSEHLDTQKELLEEMYEEKLNILKESLTSFYQEEIQERDEKIEELEALLQEARQQSVAHQQSGSELALRRSQRLAASASTQQLQEVKAKLQQCKAELNSTTEELHKYQKMLEPPPSAKPFTIDVDKKLEEGQKNIRLLRTELQKLGESLQSAERACCHSTGAGKLRQALTTCDDILIKQDQTLAELQNNMVLVKLDLRKKAACIAEQYHTVLKLQGQVSAKKRLGTNQENQQPNQQPPGKKPFLRNLLPRTPTCQSSTDCSPYARILRSRRSPLLKSGPFGKKY
TSA Expression Rate (ER) (BRAIN): 58% | TSA Expression Rate (ER) (LUNG): 95% | TSA Expression Rate (ER) (OVARIAN): 65% | TSA Expression Rate (ER) (PANCREATIC): 63% | Expression Rate (ER) % [2]: 35% | Expression Rate (ER) % [3]: 15% | Expression Rate (ER) % [6]: 64%

B6: IL13RA2 (protein, UniProt Q14627 27-380, looked up)
Interleukin-13 receptor …: DTEIKVNPPQDFEIVDPGYLGYLYLQWQPPLSLDHFKECTVEYELKYRNIGSETWKTIITKNLHYKDGFDLNKGIEAKIHTLLPWQCTNGSEVQSSWAETTYWISPQGIPETKVQDMDCVYYNWQYLLCSWKPGIGVLLDTNYNLFYWYEGLDHALQCVDYIKADGQNIGCRFPYLEASDYKDFYICVNGSSENKPIRSSYFTFQLQNIVKPLPPVYLTFTRESSCEIKLKWSIPLGPIPARCFDYEIEIREDDTTLVTATVENETYTLKTTNETRQLCFVVRSKVNIYCSDDGIWSEWSDKQCWEGEDLSKKTLLRFWLPFGFILILVIFVTGLLLRKPNTYPKMIPEFFCDT
TSA Expression Rate (ER) (BRAIN): 95% | Expression Rate (ER) % [4]: 12% | Expression Rate (ER) % (TSA expression rate in PEDIATRIC): 58%

B7: ODF4 (protein, UniProt Q2M2E3 1-257, looked up)
Outer dense fiber protein 4: MDAEYSGNEFPRSEGERDQHQRPGKERKSGEAGWGTGELGQDGRLLSSTLSLSSNRSLGQRQNSPLPFQWRITHSFRWMAQVLASELSLVAFILLLVVAFSKKWLDLSRSLFYQRWPVDVSNRIHTSAHVMSMGLLHFYKSRSCSDLENGKVTFIFSTLMLFPINIWIFELERNVSIPIGWSYFIGWLVLILYFTCAILCYFNHKSFWSLILSHPSGAVSCSSSFGSVEESPRAQTITDTPITQEGVLDPEQKDTHV
TSA Expression Rate (ER) (BREAST): 63% | Expression Rate (ER) % [5]: 0%

B8: TYR (protein, UniProt P14679 19-529, looked up)
Tyrosinase: HFPRACVSSKNLMEKECCPPWSGDRSPCGQLSGRGSCQNILLSNAPLGPQFPFTGVDDRESWPSVFYNRTCQCSGNFMGFNCGNCKFGFWGPNCTERRLLVRRNIFDLSAPEKDKFFAYLTLAKHTISSDYVIPIGTYGQMKNGSTPMFNDINIYDLFVWMHYYVSMDALLGGSEIWRDIDFAHEAPAFLPWHRLFLLRWEQEIQKLTGDENFTIPYWDWRDAEKCDICTDEYMGGQHPTNPNLLSPASFFSSWQIVCSRLEEYNSHQSLCNGTPEGPLRRNPGNHDKSRTPRLPSSADVEFCLSLTQYESGSMDKAANFSFRNTLEGFASPLTGIADASQSSMHNALHIYMNGTMSQVQGSANDPIFLLHHAFVDSIFEQWLRRHRPLQEVYPEANAPIGHNRESYMVPFIPLYRNGDFFISSKDLGYDYSYLQDSDPDSFQDYIKSYLEQASRIWSWLLGAAMVGAVLTALLAGLVSLLCRHKRKQLPEEKQPLLMEKEDYHSLYQSHL
TSA Expression Rate (ER) (BRAIN): 91% | TSA Expression Rate (ER) (THYROID): 0% | Expression Rate (ER) % [6]: 87%

B9: GAGE-2 (protein, UniProt Q6NT46 1-116, looked up)
G antigen 2A: MSWRGRSTYRPRPRRYVEPPEMIGPMRPEQFSDEVEPATPEEGEPATQRQDPAAAQEGQDEGASAGQGPKPEAHSQEQGHPQTGCECEDGPDGQEMDPPNPEEVKTPEEGEKQSQC
TSA Expression Rate (ER) (PANCREATIC): 17%
